Legend:
Experiment in all cases: ELISA, lectin-captured E1E2 lysate, Ab 1 ug/ml
[1] = target: E1E2 complex (H77) with E1 mutation G350A (HCV genotype 1a, isolate H77) (UniProt P27958)
[2] = target: E1E2 complex (H77) with E1 mutation T255A (HCV genotype 1a, isolate H77) (UniProt P27958)
[3] = target: E1E2 complex (H77) with E1 mutation Q302A (HCV genotype 1a, isolate H77) (UniProt P27958)
[4] = target: E1E2 complex (H77) with E1 mutation N196A (HCV genotype 1a, isolate H77) (UniProt P27958)
[5] = target: E1E2 complex (H77) with E2 mutation R639A (HCV genotype 1a, isolate H77) (UniProt P27958)
[6] = target: E1E2 complex (H77) with E2 mutation F442A (HCV genotype 1a, isolate H77) (UniProt P27958)
[7] = target: E1E2 complex (H77) with E1 mutation P341A (HCV genotype 1a, isolate H77) (UniProt P27958)
[8] = target: E1E2 complex (H77) with E1 mutation W353A (HCV genotype 1a, isolate H77) (UniProt P27958)
[9] = target: E1E2 complex (H77) with E1 mutation Y309A (HCV genotype 1a, isolate H77) (UniProt P27958)
[10] = target: E1E2 complex (H77) with E1 mutation L258A (HCV genotype 1a, isolate H77) (UniProt P27958)
[11] = target: E1E2 complex (H77) with E1 mutation S273A (HCV genotype 1a, isolate H77) (UniProt P27958)
[12] = target: E1E2 complex (H77) with E2 mutation Y443A (HCV genotype 1a, isolate H77) (UniProt P27958)
[13] = target: E1E2 complex (H77) with E1 mutation Q193A (HCV genotype 1a, isolate H77) (UniProt P27958)
[14] = target: E1E2 complex (H77) with E1 mutation G311A (HCV genotype 1a, isolate H77) (UniProt P27958)
[15] = target: E1E2 complex (H77) with E1 mutation G354A (HCV genotype 1a, isolate H77) (UniProt P27958)
[16] = target: E1E2 complex (H77) with E1 mutation N305A/N325A (HCV genotype 1a, isolate H77) (UniProt P27958)
[17] = target: E1E2 complex (H77) with E1 mutation H298A (HCV genotype 1a, isolate H77) (UniProt P27958)
[18] = target: E1E2 complex (H77) with E2 mutation A439G (HCV genotype 1a, isolate H77) (UniProt P27958)
[19] = target: E1E2 complex (H77) with E1 mutation D263A (HCV genotype 1a, isolate H77) (UniProt P27958)
[20] = target: E1E2 complex (H77) with E1 mutation N305A/N209A (HCV genotype 1a, isolate H77) (UniProt P27958)
[21] = target: E1E2 complex (H77) with E1 mutation D346A (HCV genotype 1a, isolate H77) (UniProt P27958)
[22] = target: E1E2 complex (H77) with E1 mutation T329A (HCV genotype 1a, isolate H77) (UniProt P27958)
[23] = target: E1E2 complex (H77) with E2 mutation T425A (HCV genotype 1a, isolate H77) (UniProt P27958)
[24] = target: E1E2 complex (H77) with E1 mutation T292A (HCV genotype 1a, isolate H77) (UniProt P27958)
[25] = target: E1E2 complex (H77) with E1 mutation N305A/N234A (HCV genotype 1a, isolate H77) (UniProt P27958)
[26] = target: E1E2 complex (H77) with E1 mutation S198A (HCV genotype 1a, isolate H77) (UniProt P27958)
[27] = target: E1E2 complex (H77) with E1 mutation G282A (HCV genotype 1a, isolate H77) (UniProt P27958)
[28] = target: E1E2 complex (H77) with E1 mutation S236A (HCV genotype 1a, isolate H77) (UniProt P27958)
[29] = target: E1E2 complex (H77) with E1 mutation N305A (HCV genotype 1a, isolate H77) (UniProt P27958)

Substance mouse anti-E1 MAb A4 (antibody) has a Binding relative to wt (%) [1] of 79%, a Binding relative to wt (%) [2] of 106% and a Binding relative to wt (%) [3] of 215%. For the same substance, the Binding relative to wt (%) [4] was 45%, the Binding relative to wt (%) [5] was 162% and the Binding relative to wt (%) [6] was 90%. The Binding relative to wt (%) [7] was 101%, the Binding relative to wt (%) [8] was 75% and the Binding relative to wt (%) [9] was 78%. It also gave a Binding relative to wt (%) [10] of 99%, a Binding relative to wt (%) [11] of 38% and a Binding relative to wt (%) [12] of 28%. For the same substance, the Binding relative to wt (%) [13] was 81%, the Binding relative to wt (%) [14] was 89% and the Binding relative to wt (%) [15] was 105%. For the same substance, the Binding relative to wt (%) [16] was 114%, the Binding relative to wt (%) [17] was 164% and the Binding relative to wt (%) [18] was 119%. The Binding relative to wt (%) [19] was 96%, the Binding relative to wt (%) [20] was 117% and the Binding relative to wt (%) [21] was 87%. The Binding relative to wt (%) [22] was 89%, the Binding relative to wt (%) [23] was 104% and the Binding relative to wt (%) [24] was 90%. For the same substance, the Binding relative to wt (%) [25] was 109%, the Binding relative to wt (%) [26] was 61% and the Binding relative to wt (%) [27] was 50%. The Binding relative to wt (%) [28] was 88% and the Binding relative to wt (%) [29] was 123%.
